In the series the test system is GST-VPg (Tulane virus) (Tulane virus). Nature of the series: ELASA.
“AGTATACGTATTACCTGCAGCTCACACTCGTTTCTATTACTAAAACATCGTTCCTTTCAGCCGATATCTCGGAGATCTTGC [T5 (= N12-2)]”: the binding signal (positive:negative absorbance ratio) was greater than 10.

With “AGTATACGTATTACCTGCAGCTAGTAACGATTACCAAAATTCTCCCGAGGCTGACAACCCGCGATATCTCGGAGATCTTGC [T1-2]”, the binding signal (positive:negative absorbance ratio) was greater than 10. In the case of “AGTATACGTATTACCTGCAGCAGTGGGTGGTGATGAATTCTGGTCGCGCTGACAACCCGCGCGATATCTCGGAGATCTTGC [N14]”, the binding signal (positive:negative absorbance ratio) was greater than 10. “AGTATACGTATTACCTGCAGCCAGAGTTGATGTAAGCTTCGTGTTAGCTCAACTCTTATCGCGATATCTCGGAGATCTTGC [N6]”: the binding signal (positive:negative absorbance ratio) is greater than 10. The figure for “AGTATACGTATTACCTGCAGCCGGGTCTCGTCTATGCAGTACTCAAAACGCTTGAGGTACCGACGATATCTCGGAGATCTTGC [N1-2]” is greater than 10. The figure for “AGTATACGTATTACCTGCAGCTGTCGTTAATTATTCGTGATCTGACAACCCGATCACTCTCCGATATCTCGGAGATCTTGC [T10-2]” is greater than 10. Under “AGTATACGTATTACCTGCAGCAAGGCTTTTTTAAAGGCTAGGCTTGATAATCGGTTAACTCCGATATCTCGGAGATCTTGC [N4-2]” stands greater than 10; under “AGTATACGTATTACCTGCAGCAGGGATGTGTTGGATGCATGCCAGGCTTGGTAACATTGTACGATATCTCGGAGATCTTGC [N3]”, greater than 10. For the sequence “AGTATACGTATTACCTGCAGCTCTTCGGTTTAATAAAGTTGGCTAGGAAAGTTTAAAACCGCGATATCTCGGAGATCTTGC [N13]”, the binding signal (positive:negative absorbance ratio) was greater than 5. For the sequence “AGTATACGTATTACCTGCAGCTCGAGGTATGGCCTTGTCTAGGCGCACCTGACAACCCGGTGCGATATCTCGGAGATCTTGC [T9-2]”, the binding signal (positive:negative absorbance ratio) is greater than 10. The figure for “AGTATACGTATTACCTGCAGCTGGAAGGCGGGAAGATTTTTGGTCGACCTGACAACCCGGTCGATATCTCGGAGATCTTGC [T9]” is greater than 10; for “AGTATACGTATTACCTGCAGCTGTCGATAAAGTGAGTTAAGTCACCGGCCCGGCCTATTCGCGATATCTCGGAGATCTTGC [N11-2]” it is greater than 10.
